Data on three molecules can be found in US20090053196A1 (LUDWIG MAXIMILLIANS UNIVERSITAT MUNCHEN, published 2009).

Assay [1] addresses T1, myc-tagged HSP-1 (^mycHSP-1) (Caenorhabditis elegans, UniProt P09446 1-640).
T1 construct: Bacterially expressed from pET-^mycHSP-1; also called C. elegans Hsp70 homolog; Hsp70 ortholog HSP-1; not shown: N-terminal myc tag introduced 5' of the cDNA by PCR (pET21a)
In words: summary sentence of Example 5 on the earlier binding assays. As for the experimental part: (§1) Binding of UNC-45^FLAG, ^mycCHN-1, ^mycCHN-1^ΔU-box, ^mycCHN-1^ΔTPR, ^mycCHN-1^Δ, ^mycUFD-2, ^mycUFD-2^{ΔU-box,} ^mycHSP-1 to GST-UFD-2 or GST-CHN-1 was done in buffer A [10 mM Tris pH 8, 10 mM DTT, Complete protease inhibitors (Boehringer)]+150 mM NaCl at 4° C. for 60 min. Glutathione-Sepharose beads were washed at least five times in buffer A with 0.1% Triton X-100 and 150 mM NaCl and bound proteins were eluted with SDS-PAGE sample buffer. Sonicated lysates from wild-type worms expressing the transgene P_unc-54::unc-45^FLAG were incubated with anti-FLAG M2-agarose beads (Sigma) in 50 mM Tris/HCl (pH 8.0), 100 mM NaCl, 10% glycerol, 1% Triton X-100 and 5 mM PMSF at 4° C. for 3 hours. Samples were precipitated with protein G-agarose beads (Amersham Pharmacia). Immunoprecipitates were washed at least five times in the same lysis buffer, were eluted with SDS-PAGE sample buffer and were separated by SDS gel electrophoresis followed by Western blotting using anti-FLAG M2 monoclonal antibodies (Sigma) or anti-Ubiquitin monoclonal antibodies (Chemicon).

A further assay addresses T2, GST (UniProt P08515 1-218 = GST).
T2 construct: Negative control of the pull-down experiments; also called GST alone; immobilized GST
The assay can be described thus: GST pull-down with glutathione-Sepharose beads. As for the experimental part: (C) Complex of CHN-1, UFD-2 and UNC-45. GST-UFD-2 was incubated with purified FLAG-tagged UNC-45 (UNC-45^FLAG) and myc-tagged CHN-1 (^mycCHN-1) together, ^mycCHN-1 or UNC-45^FLAG alone and pulled down with glutathione-Sepharose beads. GST alone with UNC-45^FLAG and ^mycCHN-1 served as the negative control.
as §1

Assay [2] has as its target T3, FLAG-tagged UNC-45 (UNC-45^FLAG) (Caenorhabditis elegans).
T3 construct: Purified as described in Barral 2002; also called ^FLAGUNC-45; purified UNC-45
In words: GST pull-down, equimolar GST-UFD-2 or GST-CHN-1 with identical amounts of purified UNC-45. As for the experimental part:
(B) In vitro binding of UNC-45 by UFD-2 or CHN-1. Equimolar amounts of GST-UFD-2 and GST-CHN-1 were incubated with the same amount of purified FLAG-tagged UNC-45 (UNC-45^FLAG) and pulled down with glutathione-Sepharose beads. GST alone with UNC-45^FLAG served as the negative control.
Binding of UNC-45^FLAG, ^mycCHN-1, ^mycCHN-1^ΔU-box, ^mycCHN-1^ΔTPR, ^mycCHN-1^Δ, ^mycUFD-2, ^mycUFD-2^{ΔU-box,} ^mycHSP-1 to GST-UFD-2 or GST-CHN-1 was done in buffer A [10 mM Tris pH 8, 10 mM DTT, Complete protease inhibitors (Boehringer)]+150 mM NaCl at 4° C. for 60 min. Glutathione-Sepharose beads were washed at least five times in buffer A with 0.1% Triton X-100 and 150 mM NaCl and bound proteins were eluted with SDS-PAGE sample buffer. […]
To compare their binding efficiencies, pull-down experiments were performed using equimolar amounts of GST-UFD-2 or GST-CHN-1 with identical amounts of purified UNC-45. […] Binary mixtures containing immobilized UFD-2 and either UNC-45 or CHN-1, and a ternary mixture containing all three proteins were set up and the resulting complexes analyzed by SDS-polyacrylamide gel electrophoresis. Approximately equimolar complexes were detected between UFD-2 and both CHN-1 and UNC-45 in the binary mixtures and among the three proteins in the ternary mixture. […]

T2 sequence (P08515 whole entry): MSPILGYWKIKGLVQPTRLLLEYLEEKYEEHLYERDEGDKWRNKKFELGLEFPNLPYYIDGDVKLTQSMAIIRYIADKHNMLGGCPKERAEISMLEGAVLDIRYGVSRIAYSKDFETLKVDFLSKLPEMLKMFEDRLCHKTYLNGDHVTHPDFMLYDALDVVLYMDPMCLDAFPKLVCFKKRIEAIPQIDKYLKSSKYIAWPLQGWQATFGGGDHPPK
T1 sequence (P09446 whole entry): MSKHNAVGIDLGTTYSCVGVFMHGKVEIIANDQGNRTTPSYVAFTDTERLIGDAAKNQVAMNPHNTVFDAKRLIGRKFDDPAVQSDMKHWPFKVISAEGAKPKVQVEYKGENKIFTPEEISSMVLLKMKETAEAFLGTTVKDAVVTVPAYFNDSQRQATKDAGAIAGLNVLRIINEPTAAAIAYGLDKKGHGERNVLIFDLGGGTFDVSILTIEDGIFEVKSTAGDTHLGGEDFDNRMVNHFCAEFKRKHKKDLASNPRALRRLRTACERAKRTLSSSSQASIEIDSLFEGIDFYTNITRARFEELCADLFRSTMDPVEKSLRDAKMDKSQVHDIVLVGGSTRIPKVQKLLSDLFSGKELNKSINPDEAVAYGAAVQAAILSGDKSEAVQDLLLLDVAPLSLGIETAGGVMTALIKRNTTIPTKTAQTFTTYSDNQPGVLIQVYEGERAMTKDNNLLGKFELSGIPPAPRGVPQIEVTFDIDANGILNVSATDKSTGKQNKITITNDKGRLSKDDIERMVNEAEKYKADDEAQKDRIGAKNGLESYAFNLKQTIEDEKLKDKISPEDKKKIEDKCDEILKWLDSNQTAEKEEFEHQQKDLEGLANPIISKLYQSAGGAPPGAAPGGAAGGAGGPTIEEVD

B1: GST-CHN-1 (enzyme)
chain: MSSGAEQHNTNGKKCYMNKRYDDAVDHYSKAIKVNPLPKYYQNRAMCYFQLNNLKMTEEDCKRALELSPNEVKPLYFLGNVFLQSKKYSEAISCLSKALYHNAVITNAPDIENALKRARHQKYEEEESKRIVQDVEFHTYLESLIEKDRQENSENPEELQRADMAKKRLTELTLATQEKRQNREVPEMLCGKITLELMKEPVIVPSGITYDREEIVQHLRRIGHFDPVTRKPLTENEIIPNYALKEVIEKFLDDNPWAKYEPGGMV
notes: GST fusion from pGEX-CHN-1, purified from E. coli; also called GST-tagged version of CHN-1; not shown: glutathione S-transferase (GST) encoded by vector pGEX4T1
As to B1, in assay [1], the binding result is given as “binds”.

B2: myc-tagged CHN-1 (^mycCHN-1) (enzyme)
chain: B1 chain
notes: Full-length CHN-1, bacterially expressed from pET-^mycCHN-1; also called C. elegans CHIP ortholog; not shown: N-terminal myc tag introduced 5' of the cDNA by PCR (pET21a)
B2: the binding result in the assay with GST is “no binding”.

B3: GST-UFD-2 (enzyme, Caenorhabditis elegans, UniProt Q09349 1-984, looked up)
chain: MIEDEKAGLQPMDISDASVFFFQADVESKDFLTSLFDCEGKSDDRMLRYADAIIDVQNLNFDVSPQCLQSNIAEIITKFVLLSQDGSRRGLSRSFNFIDPDIIAGCREEDAIEFLLINFVRCHHELGKSGTSNCYKKTLESTRKAVFSVFVMIQRGYLESQLRSQHASLVFTKRLLEDTVSNVFLRTLVEYLASTDECDEDAITETFNPIFGILRSGIICQRFEDNKDEIVRQILRVMNLLLSIRLPSNGPRPLSNLLVNREDFLPTPSEKIQGREFGLMSFLGPFFSYGLESSARRPNHRVFVDCEEDARKYDGSVNTEQKLYFQRMDPIRTMLHQLMLPLASDQGSRNKTLRWIATIISTNDIRTRSHYDPSDVLCDHYMTNFLSVMYMFSEKIDLSKIIVDYPFLPSSLINISKETRLKMDESGAVAFASQFADRPDEYHFSTVCFFLTIAAQRLVIPPLMNQISEYSRHLKELKHKINALKEKLNTVSGFERAEVEKKLNYETEHWKLMSRHLLCVKTQAQDPALMASSMDFVDKQMKFILNLLCDNLDLLGDDSQLPTEVSQMFCALPEYFLEDALDFYIFAISNGMKLLMERNADWISRLTVLFTQYHYIKSPFLVSKLVRVLSSIQPPLWFNVVRLRMAQENLLMCMIKFYSDFEDNGDFYEKFNVRGNIQYMLEKMEEDMFYKGKFMDMARECGAEFIRFVNMVINDATWCIDESLSGLKSIHDVEKKMANKVEWDNTDQEIRNQDLGVYEEAKRKVKGWLGTAKSNLKLLLSITVNSPEPFRTPVLGERLAAMLNHNLSQLIGSKASELKVKDPRSYGWEPREFVSLLISIYLKLNMPAFVKYIAYDERTYSPEFFHNAIECMRKNSIVGFSQLESFEHLAEDVKKEYEAKAELEEEYDDVPEEFKDPIMDAIMVDPVKLPSGHVMDRAVIERHLLSTPNNPFNRAPLSHNELSPDSELKAKIQEWICQKRNSKK
notes: GST fusion from pGEX-UFD-2, purified from E. coli; also called immobilized GST-UFD-2; not shown: glutathione S-transferase (GST) encoded by vector pGEX4T1
For B3, in assay [2], the “fold more UNC-45 bound than by GST-CHN-1” value is ~20 fold.
